Measured values: patent US20020127594A1 (Takeda / Millennium, published 2002)

Biological target: p185 (erbB2), 185 kDa receptor-type tyrosine kinase of the EGFR family, in MDA-MB453 breast adenocarcinoma … (UniProt P04626 23-1255, limits assumed)
Test: cell-based or functional assay

phosphorylation of the 185 kDa protein in MDA-MB453 cells (antiphosphotyrosine Western blot): ~10 fold
B1: Don-1 EGF domain-containing fusion polypeptide (EGF domain and flanking amino acids 85-154 of murine Don-1, C-terminal Flag epitope tag), secreted by … (ligand, not shown: small tags and cut ends)
chain: LHVNSVSTTLSSWSGHARKCNETAKSYCVNGGVCYYIEGINQLSCKCPNGFFGQRCLEKLPLRLYMPDPK
